Results: patent publication US20050037949A1, “Mannose binding lectin and uses thereof” (priority 2002, published 2005)
Read-outs that look alike come from different tables or passages of the source.

What was measured:
[1] = target: MBL associated serine protease 2 (MASP2) (human) (UniProt O00187); assay: cell-based or functional assay
[2] = target: MBL associated serine protease 2 (MASP2) (human) (UniProt O00187); assay: cell-based or functional assay; remark: listed apart in the source

Chain of affinity purified MBL-MASP complex (P11226 21-248, one chain of several): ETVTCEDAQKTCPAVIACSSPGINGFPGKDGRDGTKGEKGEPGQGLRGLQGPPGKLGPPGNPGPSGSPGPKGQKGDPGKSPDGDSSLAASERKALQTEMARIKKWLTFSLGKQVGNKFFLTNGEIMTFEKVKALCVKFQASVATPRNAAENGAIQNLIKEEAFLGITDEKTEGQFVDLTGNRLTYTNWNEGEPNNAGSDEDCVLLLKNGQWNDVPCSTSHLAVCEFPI
Chain of MBL associated serine protease 2 (MASP2) (human) (O00187 16-686 limits assumed): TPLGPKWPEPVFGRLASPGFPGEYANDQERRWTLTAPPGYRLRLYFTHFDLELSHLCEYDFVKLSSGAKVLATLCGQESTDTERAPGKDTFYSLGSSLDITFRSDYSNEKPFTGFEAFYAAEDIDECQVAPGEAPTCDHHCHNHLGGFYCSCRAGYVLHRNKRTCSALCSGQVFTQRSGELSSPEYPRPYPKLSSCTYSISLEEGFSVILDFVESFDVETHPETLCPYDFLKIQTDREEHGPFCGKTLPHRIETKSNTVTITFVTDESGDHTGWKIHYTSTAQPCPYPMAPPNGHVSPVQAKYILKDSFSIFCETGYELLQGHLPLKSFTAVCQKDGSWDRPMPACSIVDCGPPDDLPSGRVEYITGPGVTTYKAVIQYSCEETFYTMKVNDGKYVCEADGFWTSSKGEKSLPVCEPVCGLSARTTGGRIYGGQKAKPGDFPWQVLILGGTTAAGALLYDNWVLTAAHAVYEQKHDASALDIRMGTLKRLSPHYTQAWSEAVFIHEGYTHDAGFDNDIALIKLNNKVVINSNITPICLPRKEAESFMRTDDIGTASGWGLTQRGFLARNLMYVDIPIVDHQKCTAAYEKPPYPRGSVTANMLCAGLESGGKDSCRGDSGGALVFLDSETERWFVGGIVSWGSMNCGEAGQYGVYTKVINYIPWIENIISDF

C4 deposition at MBL 0.624 ug/mL [1]: 0.05 U/ul
C4 deposition at MBL 1.032 ug/mL [1]: 0.068 U/ul
C4 deposition at MBL 2.081 ug/mL [1]: 0.103 U/ul
C4 deposition at MBL 3.3 ug/mL [1]: 0.197 U/ul
C4 deposition at MBL 4.08 ug/mL [1]: 0.138 U/ul
C4 deposition at MBL 4.42 ug/mL [1]: 0.168 U/ul
C4 deposition at MBL 5.95 ug/mL [1]: 0.172 U/ul
C4 deposition at MBL 6.94 ug/mL [1]: 0.197 U/ul
C4 deposition at MBL 11.41 ug/mL [1]: 0.204 U/ul
C4 deposition at MBL 15 ug/mL [1]: 0.246 U/ul
C4 deposition at MBL 25 µg/mL (previous assay, same batch) [1]: 0.27 U/µl
C4 deposition at MBL 40 ug/mL [1]: 0.321 U/ul
C4 deposition at MBL 50 ug/mL [1]: 0.289 U/ul
C4 deposition at MBL 0.471 ug/mL [2]: 0.054 U/ul
C4 deposition at MBL 1.065 ug/mL [2]: 0.057 U/ul
C4 deposition at MBL 2.237 ug/mL [2]: 0.104 U/ul
C4 deposition at MBL 2.802 ug/mL [2]: 0.114 U/ul
C4 deposition at MBL 4.011 ug/mL [2]: 0.138 U/ul
C4 deposition at MBL 4.681 ug/mL [2]: 0.171 U/ul
C4 deposition at MBL 5.382 ug/mL [2]: 0.159 U/ul
C4 deposition at MBL 6.814 ug/mL [2]: 0.19 U/ul
C4 deposition at MBL 7.967 ug/mL [2]: 0.203 U/ul
C4 deposition at MBL 10.998 ug/mL [2]: 0.22 U/ul
C4 deposition at MBL 40 ug/mL [2]: 0.292 U/ul
C4 deposition at MBL 50 ug/mL [2]: 0.308 U/ul
Substance: affinity purified MBL-MASP complex (from UniProt P11226 21-248)
